Measurements from patent US8048659.

Tests used:
[1] = target: T1, EuMac-Peptide-PEGA beads (Formula XII)
T1 chain: CWKKKPAPFAAA

[2] = target: T2, H-Cys(Npys)-Trp-Lys-Lys-Lys-Pro-Ala-Pro-Phe-Ala-Ala-Ala-LC-PEGA resin
T2 chain: CWKKKPAPFAAA

B1: Proteinase K Molecular Biology, SIGMA Catalog No. P-4850 (protein)
chain: AAQTNAPWGLARISSTSPGTSTYYYDESAGQGSCVYVIDTGIEASHPEFEGRAQMVKTYYYSSRDGNGHGTHCAGTVGSRTYGVAKKTQLFGVKVLDDNGSGQYSTIIAGMDFVASDKNNRNCPKGVVASLSLGGGYSSSVNSAAARLQSSGVMVAVAAGNNNADARNYSPASEPSVCTVGASDRYDRRSSFSNYGSVLDIFGPGTSILSTWIGGSTRSISGTSMATPHVAGLAAYLMTLGKTTAASACRYIADTANKGDLSNIPFGTVNLLAYNNYQA
[1]
  absorbance of supernatant at 280 nm after hydrolysis at pH 8.0, 25.5 ug/mL Proteinase K: the Proteinase K did release a cleavage product containing tryptophan from the EuMac-Peptide-PEGA-Beads
  luminescence of beads before and after 115 min of Proteinase K hydrolysis: The drastic difference in luminescence before and after Proteinase K hydrolysis demonstrated that the EuMac-labeled part of the peptide was released from the bead
[2]
  absorbance of supernatant (275 nm and 350 nm peaks) after hydrolysis at pH 7.1, 15.1 ug/mL Proteinase K: the release of the free peptide was much greater for the Proteinase K sample
  absorbance of supernatant with time after hydrolysis at pH 8.01, 14.2 and 28.4 ug/mL Proteinase K: demonstrate that Proteinase K cleaves a peptide from the Peptide-PEGA-Beads
  ratio of cleaved peptide, 28.4 vs. 14.2 ug/mL Proteinase K (absorbance at 280 nm): The doubling, of the enzyme concentration resulted in an approximately 1.3 fold increase in cleaved peptide
